Measurements published in patent publication US20140004106A1.

Assays:
[1] = molecular target: 28mer peptide of the CXCR5 antigen; experiment: Antigen-ELISA; standard run with LA_09_28A, T0
[2] = molecular target: 28mer peptide of the CXCR5 antigen; experiment: Antigen-ELISA; TRIS 10 mM pH 7.5, T0
[3] = molecular target: 28mer peptide of the CXCR5 antigen; experiment: ELISA potency (binding); 100 mg/mL, Arginine (20) + NaCl (2), T zero
[4] = molecular target: 28mer peptide of the CXCR5 antigen; experiment: Antigen-ELISA; Citrate 10 mM pH 5.00, after mechanical stress 350 rpm 2.5 h
[5] = molecular target: 28mer peptide of the CXCR5 antigen; experiment: Potency (Antigen ELISA); stored +5°C, 3 months
[6] = molecular target: 28mer peptide of the CXCR5 antigen; experiment: Antigen-ELISA; Histidine 10 mM pH 5.5, T0
[7] = molecular target: 28mer peptide of the CXCR5 antigen; experiment: Antigen-ELISA; PB 5 mM pH 7.00, after mechanical stress 350 rpm 2.5 h
[8] = molecular target: 28mer peptide of the CXCR5 antigen; experiment: Antigen-ELISA; standard run with LA_09_004_2
[9] = molecular target: 28mer peptide of the CXCR5 antigen; experiment: Antigen-ELISA; acetate 10 mM prototype B, repeated values in the 3 weeks -20°C
[10] = molecular target: 28mer peptide of the CXCR5 antigen; experiment: ELISA potency (binding); 100 mg/mL, Sucrose (60) + Mannitol (15), T zero
[11] = molecular target: 28mer peptide of the CXCR5 antigen; experiment: Antigen-ELISA; PB 5 mM pH 6.50, after mechanical stress 350 rpm 2.5 h
[12] = molecular target: 28mer peptide of the CXCR5 antigen; experiment: ELISA potency (binding); 100 mg/mL, Trehalose (60) + NaCl (2), T zero
[13] = molecular target: 28mer peptide of the CXCR5 antigen; experiment: ELISA potency (binding); 100 mg/mL, Arginine (20) + NaCl (2), 7 days at 40°C
[14] = molecular target: 28mer peptide of the CXCR5 antigen; experiment: Potency (Antigen ELISA); stored +5°C, 12 months
[15] = molecular target: 28mer peptide of the CXCR5 antigen; experiment: Ag-ELISA; DS in PBS, release
[16] = molecular target: 28mer peptide of the CXCR5 antigen; experiment: ELISA potency (binding); 100 mg/mL, Glycine (20), T zero
[17] = molecular target: 28mer peptide of the CXCR5 antigen; experiment: Antigen-ELISA; PB 10 mM pH 6.50, after 1 week at +40°C
[18] = molecular target: 28mer peptide of the CXCR5 antigen; experiment: Potency (Antigen ELISA); stored +5°C, 18 months
[19] = molecular target: 28mer peptide of the CXCR5 antigen; experiment: Antigen-ELISA; PB 10 mM pH 7.50, after 1 week at +40°C
[20] = molecular target: 28mer peptide of the CXCR5 antigen; experiment: Antigen-ELISA; Citrate 10 mM pH 6.50, after 1 week at +40°C
[21] = molecular target: 28mer peptide of the CXCR5 antigen; experiment: Antigen-ELISA; Citrate 10 mM pH 5.00, after 1 week at +40°C
[22] = molecular target: 28mer peptide of the CXCR5 antigen; experiment: Ag-ELISA; DS in PBS, 5°C, 1 month
[23] = molecular target: 28mer peptide of the CXCR5 antigen; experiment: Antigen-ELISA; standard run with LA_09_29B, T0
[24] = molecular target: 28mer peptide of the CXCR5 antigen; experiment: Antigen-ELISA; Arginine 10 mM pH 8, T0
[25] = molecular target: 28mer peptide of the CXCR5 antigen; experiment: Antigen-ELISA; standard run with LA_09_004_10
[26] = molecular target: 28mer peptide of the CXCR5 antigen; experiment: Potency (Antigen ELISA); stored +5°C, 15 months
[27] = molecular target: 28mer peptide of the CXCR5 antigen; experiment: Antigen-ELISA; PB 10 mM pH 6.50, after mechanical stress 350 rpm 2.5 h
[28] = molecular target: 28mer peptide of the CXCR5 antigen; experiment: Antigen-ELISA; TRIS 10 mM pH 8.5, T0
[29] = molecular target: 28mer peptide of the CXCR5 antigen; experiment: ELISA potency (binding); 100 mg/mL, Lysine (30) + NaCl (2), 7 days at 40°C
[30] = molecular target: 28mer peptide of the CXCR5 antigen; experiment: ELISA potency (binding); 100 mg/mL, Glycine (20) + Mannitol (15), T zero
[31] = molecular target: 28mer peptide of the CXCR5 antigen; experiment: Potency (Antigen ELISA); stored -20°C, 1 month
[32] = molecular target: 28mer peptide of the CXCR5 antigen; experiment: Potency (Antigen ELISA); stored +25°C, 6 months
[33] = molecular target: 28mer peptide of the CXCR5 antigen; experiment: Antigen-ELISA; standard run with LA_09_004_5
[34] = molecular target: 28mer peptide of the CXCR5 antigen; experiment: Antigen-ELISA; Arginine 10 mM pH 6, after 1 week at +40°C
[35] = molecular target: 28mer peptide of the CXCR5 antigen; experiment: Antigen-ELISA; PBS 155 mM pH 7.50, T0
[36] = molecular target: 28mer peptide of the CXCR5 antigen; experiment: Antigen-ELISA; standard run with LA_09_29D, T0
[37] = molecular target: 28mer peptide of the CXCR5 antigen; experiment: Antigen-ELISA; Citrate 10 mM pH 6.50, after mechanical stress 350 rpm 2.5 h
[38] = molecular target: 28mer peptide of the CXCR5 antigen; experiment: Antigen-ELISA; Histidine 10 mM pH 6.5, T0
[39] = molecular target: 28mer peptide of the CXCR5 antigen; experiment: Antigen-ELISA; standard run with LA_09_27C, T0
[40] = molecular target: 28mer peptide of the CXCR5 antigen; experiment: Antigen-ELISA; PBS 155 mM pH 7.50, after 1 week at +40°C
[41] = molecular target: 28mer peptide of the CXCR5 antigen; experiment: Antigen-ELISA; PB 5 mM pH 6.50, T0
[42] = molecular target: 28mer peptide of the CXCR5 antigen; experiment: Potency (Antigen ELISA); stored -20°C, 18 months
[43] = molecular target: 28mer peptide of the CXCR5 antigen; experiment: Antigen-ELISA; PBS 155 mM, polyethylene low density, 24 h +40°C

B1: Lead CXCR5 Antibody (humanized IgG4 anti-CXCR5 antibody) (antibody, V domains shown)
VH: QVQLKESGPGLVAPSESLSITCTVSGFSLIDYGVNWIRQPPGKGLEWLGVIWGDGTTYYNPSLKSRLSISKDNSKSQVFLKVTSLTTDDTAMYYCARIVYWGQGTLVTVSA
VL: DIVMTQAAPSVAVTPGASVSISCRSSKSLLHSSGKTYLYWFLQRPGQSPQLLIYRLSSLASGVPDRFSGSGSGTAFTLRISRVEAEDVGVYYCMQHLEYPYTFGGGTKLEIKR
Question: For B1, which EC50 % [1] is on record?
Answer: The EC50 % was 100%.

Question: What about the EC50 % [2] of the same binder?
Answer: Its EC50 % is 104%.

Question: What about the rel. potency [%] [3] of the same binder?
Answer: The rel. potency [%] was 144%.

Question: And the EC50 % [4]?
Answer: The EC50 % was 99%.

Question: And the EC50 value (in comparison to reference) [5]?
Answer: The EC50 value (in comparison to reference) was 95%.

Question: What about the EC50 % [6] of the same binder?
Answer: The EC50 % was 57%.

Question: And the EC50 % [7]?
Answer: The EC50 % was 110%.

Question: What about the EC50 % [8] of the same binder?
Answer: The EC50 % was 100%.

Question: And the EC50 % [9]?
Answer: The EC50 % was 112%.

Question: What about the rel. potency [%] [10] of the same binder?
Answer: Its rel. potency [%] is 205%.

Question: What about the EC50 % [11] of the same binder?
Answer: Its EC50 % is 150%.

Question: What about the rel. potency [%] [12] of the same binder?
Answer: Its rel. potency [%] is 110%.

Question: What about the rel. potency [%] [13] of the same binder?
Answer: The rel. potency [%] was 164%.

Question: What about the EC50 value (in comparison to reference) [14] of the same binder?
Answer: Its EC50 value (in comparison to reference) is 93%.

Question: What about the EC50 % [15] of the same binder?
Answer: Its EC50 % is 100%.

Question: What about the rel. potency [%] [16] of the same binder?
Answer: Its rel. potency [%] is 170%.

Question: What about the EC50 % [17] of the same binder?
Answer: The EC50 % was 78.8%.

Question: What about the EC50 value (in comparison to reference) [18] of the same binder?
Answer: The EC50 value (in comparison to reference) was 119%.

Question: And the EC50 % [19]?
Answer: The EC50 % was 68%.

Question: And the EC50 % [20]?
Answer: The EC50 % was 46%.

Question: What about the EC50 % [21] of the same binder?
Answer: The EC50 % was 75%.

Question: What about the EC50 % [22] of the same binder?
Answer: The EC50 % was 83%.

Question: And the EC50 % [23]?
Answer: Its EC50 % is 100%.

Question: What about the EC50 % [24] of the same binder?
Answer: Its EC50 % is 121%.

Question: What about the EC50 % [25] of the same binder?
Answer: The EC50 % was 100%.

Question: What about the EC50 value (in comparison to reference) [26] of the same binder?
Answer: The EC50 value (in comparison to reference) was 114%.

Question: What about the EC50 % [27] of the same binder?
Answer: Its EC50 % is 89.4%.

Question: And the EC50 % [28]?
Answer: The EC50 % was 118%.

Question: And the rel. potency [%] [29]?
Answer: Its rel. potency [%] is 264%.

Question: What about the rel. potency [%] [30] of the same binder?
Answer: Its rel. potency [%] is 111%.

Question: What about the EC50 value (in comparison to reference) [31] of the same binder?
Answer: Its EC50 value (in comparison to reference) is 107%.

Question: What about the EC50 value (in comparison to reference) [32] of the same binder?
Answer: Its EC50 value (in comparison to reference) is 104%.

Question: And the EC50 % [33]?
Answer: The EC50 % was 100%.

Question: What about the EC50 % [34] of the same binder?
Answer: Its EC50 % is 99%.

Question: What about the EC50 % [35] of the same binder?
Answer: The EC50 % was 81%.

Question: And the EC50 % [36]?
Answer: Its EC50 % is 100%.

Question: What about the EC50 % [37] of the same binder?
Answer: The EC50 % was 41%.

Question: And the EC50 % [38]?
Answer: Its EC50 % is 110%.

Question: What about the EC50 % [39] of the same binder?
Answer: The EC50 % was 100%.

Question: And the EC50 % [40]?
Answer: Its EC50 % is 52%.

Question: What about the EC50 % [41] of the same binder?
Answer: The EC50 % was 110%.

Question: What about the EC50 value (in comparison to reference) [42] of the same binder?
Answer: The EC50 value (in comparison to reference) was 127%.

Question: What about the EC50 % [43] of the same binder?
Answer: Its EC50 % is 104%.
